Measured values taken from US20240043489A1, “Cytokine Prodrugs Comprising a Cleavable Linker” (Trutino Biosciences Inc., priority 2020, published 2024).
“And” between values parts separate entries of the source, which are not always exact repeats. Equal entries are not always repeated. Where two headings read alike, the source gives them in different places.

Experiments:
[1] = biological target: Collagen type I (Homo sapiens, UniProt P02452+P08123); conditions: binds to Collagen type I; Note 1 of Table 2; cited from earlier work
[2] = system: heparin; conditions: Note 1, cited from earlier work
[3] = system: HEK-Blue™ IL-2 cells; experiment: HEK-Blue IL2 reporter assay (SEAP, OD630); format: cell-based; conditions: Table 5C
Experimental: Recombinant MMP9 and/or MMP2 (R&D Systems) was first activated with p-aminophenylmercuric acetate and this activated protease or equivalent amount of activating solution without the protease was used to digest or mock digest the fusion protein for 1 hr, 2 hr, 4 hr and overnight (18-22 hr) at 37 C. Cleavage assays are set up in TCNB buffer: 50 mM Tris, 10 mM CaCl2), 150 mM NaCl, 0.05% Brij-35 (w/v), pH 7.5. Digested protein was aliquoted and stored at −80° C. prior to testing. Aliquots of digests were subsequently analyzed by SDS-PAGE followed by Western blotting to evaluate the extent of cleavage. Digests were also assessed in functional assays such as CTLL-2 proliferation and HEK-Blue Interleukin reporter assays. As shown in FIGS. 2A-E, essentially complete cleavage by MMP9 protease of the fusion proteins with functional site is seen after overnight incubation. In contrast, proteins containing a scrambled MMP cleavage site are not cut (FIG. 2E). HEK-Blue™ IL-2 cells are specifically designed to monitor the activation of the JAK-STAT pathway induced by IL-2. Indeed, stimulation with human or murine IL-2 triggers the JAK/STAT5 pathway and induces secreted embryonic alkaline phosphatase (SEAP) production. SEAP can be readily monitored when using QUANTI-Blue™, a SEAP detection medium. These cells respond to human and murine IL-2. For the HEK Blue assay, untreated and digested samples are titrated and added to 50 000 HEK Blue cells per well in 200 ul medium in a 96-well plate and incubated at 37C in 5% CO2 for 20-24 hr. The following day, levels of SEAP are measured by adding 20 uL of cell supernatant to QuantiBlue reagent, followed by 1-3 h incubation at 37C and reading absorbance at 630 nm. FIGS. 3C-J, 3Q-Y and Table 5B-5C show results obtained from IL2 fusion proteins tested in HEK Blue IL2 assay.

[4] = system: heparin; experiment: IL-2 fusion protein plate binding assay to Heparin-BSA conjugate; conditions: pH 6 vs pH 7.5, plate assay
Experimental: 96-well plates were coated with 25 ug/mL of Heparin-BSA conjugate (provided by Dr. Mueller, Boerhinger Ingelheim) or control BSA for 18-22 h at room temperature on shaker (350 rpm). After washing, wells are blocked with PBS-0.05% Tween 20/1% BSA for 90 min, then fusion proteins are titrated in 1% BSA/PBS-0.05% Tween 20 pH 7.5 and/or pH 6 and added for 2 hr at room temperature with shaking. After washing, an anti-mouse IL-2 biotin-labelled detection antibody (JES6-5H4, ThermoFisher) is added and binding is detected using Ultra Strepavidin HIRP (ThermoFisher). The plate was developed by adding the chromogenic tetramethylbenzidine substrate (Ultra TMB, ThermoFisher). The reaction is stopped by addition of 0.5M H2SO4 and the absorbance is read at 450-650 nm.

[5] = Full-length drug levels in serum by ELISA; format: in vivo, mice; conditions: Construct Y 20 mg/kg Day 21 (8 days after last IV) vs Construct B 20 mg/kg Day 17 (4 days after)
Experimental: We developed an ELISA assay to detect and quantify fusion proteins comprising IL-2 and IL-2Rα moieties. Wells of a 96-well plate are coated overnight with 100 uL of a rat anti-mouse IL-2 monoclonal antibody (JES6-1A12; ThermoFisher) at […] in PBS. After washing, wells are blocked with TBS/0.05% Tween 20/1% BSA, then fusion proteins and/or unknown biological samples are added for 1 hr at room temperature. After washing, an anti-mouse IL-2Rα biotin-labelled detection antibody (BAF2438, R&D systems) is added and binding is detected using Ultra Strepavidin HRP (ThermoFisher). The ELISA plate was developed by adding the chromogenic tetramethylbenzidine substrate (Ultra TMB, ThermoFisher). The reaction is stopped by addition of 0.5M H2SO4 and the absorbance is read at 450-650 nm.
Additional serum samples collected at Day 17 (Construct B 20 mg/kg) and Day 21 (Construct Y 20 mg/kg), 4 days and 8 days respectively after the last IV injection, were assayed for full-length IL-2 fusion drug.

[6] = system: B16F10 melanoma; experiment: In vivo efficacy of retention linker IL-2 drugs in B16F10 syngeneic model (Example 17); design: species or system mice
Experimental: (§1) In a first efficacy study, C57BL/6 mice were subcutaneously inoculated with B16F10 melanoma cells and when the average tumor volume reached on average 70-90 mm^3, animals were randomized into 5 groups based on tumor volumes (n=6 mice per treatment group). Mice were dosed intravenously every 3 days (Q3D) for a total of 5 doses according to following design:
as §1, with “second” for “first”, “study in the same model,” for “study,”
On Day 20, mice received an additional dose of drug, animals were sacrificed 24 hrs later and tissues and blood (processed to serum) were collected and stored at −80C for further testing. […] This is most likely due to the higher levels of both circulating drugs in serum and resident drug in TME, which can exert prolonged anti-tumor activity even after an extended dosing holiday.

[7] = biological target: fibronectin (Homo sapiens, UniProt P02751); experiment: IL-2 fusion protein plate binding assay to fibronectin
Experimental: A similar plate-based assay was developed to interrogate binding of IL-2 fusion variants to fibronectin. 96-well plates were coated with 4 ug/mL of fibronectin (Sigma) or control BSA for 18-22 h at room temperature on shaker (350 rpm). After washing, wells are blocked with protein-free blocking buffer (Pierce) for 90 min, then fusion proteins are titrated in blocking buffer-0.1% Tween 20 pH 7.5 and/or pH 6 and added for 1 hr at room temperature with shaking. After washing, an anti-mouse IL-2 biotin-labelled detection antibody (JES6-5H4, ThermoFisher) is added and binding is detected using Ultra Streptavidin HRP (ThermoFisher). The plate was developed by adding the chromogenic tetramethylbenzidine substrate (Ultra TMB, ThermoFisher). The reaction is stopped by addition of 0.5M H2SO4 and the absorbance is read at 450-650 nm.

[8] = cleaved with MMP9, read-out: +MMP EC50

Collagen type I, sequence (P02452 162-1218 limits assumed): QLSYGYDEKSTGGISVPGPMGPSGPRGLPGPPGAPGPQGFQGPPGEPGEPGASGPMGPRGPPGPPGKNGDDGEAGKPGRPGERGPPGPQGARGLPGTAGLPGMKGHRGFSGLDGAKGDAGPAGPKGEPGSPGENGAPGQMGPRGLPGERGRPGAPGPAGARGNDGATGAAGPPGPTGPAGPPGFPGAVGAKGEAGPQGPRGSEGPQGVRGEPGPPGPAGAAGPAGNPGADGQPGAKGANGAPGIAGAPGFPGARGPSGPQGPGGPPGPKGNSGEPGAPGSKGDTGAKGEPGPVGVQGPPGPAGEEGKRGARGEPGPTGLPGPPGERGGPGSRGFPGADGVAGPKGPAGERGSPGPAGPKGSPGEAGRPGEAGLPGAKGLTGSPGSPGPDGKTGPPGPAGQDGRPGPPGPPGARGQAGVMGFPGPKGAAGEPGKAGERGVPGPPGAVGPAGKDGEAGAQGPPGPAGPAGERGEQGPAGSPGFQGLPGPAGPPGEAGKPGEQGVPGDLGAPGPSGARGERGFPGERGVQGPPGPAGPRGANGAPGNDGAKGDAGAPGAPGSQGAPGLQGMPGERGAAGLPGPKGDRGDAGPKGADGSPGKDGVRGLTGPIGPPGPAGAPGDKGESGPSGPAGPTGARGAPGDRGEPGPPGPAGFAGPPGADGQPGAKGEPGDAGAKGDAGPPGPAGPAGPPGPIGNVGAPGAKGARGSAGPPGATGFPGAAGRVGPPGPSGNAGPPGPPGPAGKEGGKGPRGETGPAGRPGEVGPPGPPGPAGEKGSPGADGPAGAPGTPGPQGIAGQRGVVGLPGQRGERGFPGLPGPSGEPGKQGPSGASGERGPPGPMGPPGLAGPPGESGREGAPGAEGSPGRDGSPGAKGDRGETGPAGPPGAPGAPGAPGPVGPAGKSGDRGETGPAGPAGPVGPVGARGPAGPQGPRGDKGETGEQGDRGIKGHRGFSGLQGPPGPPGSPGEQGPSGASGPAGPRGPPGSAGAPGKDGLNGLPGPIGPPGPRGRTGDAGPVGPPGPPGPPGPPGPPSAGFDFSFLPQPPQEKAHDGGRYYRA
Collagen type I, sequence (P08123 80-1119 limits assumed): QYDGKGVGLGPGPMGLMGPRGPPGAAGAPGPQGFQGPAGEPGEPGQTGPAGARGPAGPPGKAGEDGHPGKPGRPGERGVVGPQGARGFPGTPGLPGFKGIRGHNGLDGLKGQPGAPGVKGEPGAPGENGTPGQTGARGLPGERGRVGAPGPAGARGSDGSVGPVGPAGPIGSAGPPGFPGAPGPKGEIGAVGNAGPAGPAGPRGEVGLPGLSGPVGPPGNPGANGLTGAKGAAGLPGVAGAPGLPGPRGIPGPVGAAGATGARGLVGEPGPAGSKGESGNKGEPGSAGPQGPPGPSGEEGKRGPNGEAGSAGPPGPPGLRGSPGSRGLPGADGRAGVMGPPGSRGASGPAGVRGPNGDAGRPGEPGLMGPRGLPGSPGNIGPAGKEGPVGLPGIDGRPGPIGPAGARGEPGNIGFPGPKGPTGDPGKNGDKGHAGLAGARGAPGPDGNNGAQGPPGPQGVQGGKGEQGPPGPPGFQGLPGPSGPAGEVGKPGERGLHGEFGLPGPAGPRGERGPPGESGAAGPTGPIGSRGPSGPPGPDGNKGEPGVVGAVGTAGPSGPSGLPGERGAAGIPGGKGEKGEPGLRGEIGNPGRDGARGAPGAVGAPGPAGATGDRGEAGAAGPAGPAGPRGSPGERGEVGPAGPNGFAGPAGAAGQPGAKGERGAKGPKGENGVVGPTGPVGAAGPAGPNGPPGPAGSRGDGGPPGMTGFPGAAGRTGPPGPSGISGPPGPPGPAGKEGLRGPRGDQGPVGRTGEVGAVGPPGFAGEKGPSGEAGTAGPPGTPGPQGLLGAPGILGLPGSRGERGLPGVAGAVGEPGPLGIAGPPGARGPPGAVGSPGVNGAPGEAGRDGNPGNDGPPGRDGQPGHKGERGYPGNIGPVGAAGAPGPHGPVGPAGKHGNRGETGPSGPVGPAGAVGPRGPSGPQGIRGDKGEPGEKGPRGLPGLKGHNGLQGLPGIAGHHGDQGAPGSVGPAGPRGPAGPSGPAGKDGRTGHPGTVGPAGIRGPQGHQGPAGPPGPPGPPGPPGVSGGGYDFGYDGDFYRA
fibronectin, sequence (P02751 32-2477, species assumed): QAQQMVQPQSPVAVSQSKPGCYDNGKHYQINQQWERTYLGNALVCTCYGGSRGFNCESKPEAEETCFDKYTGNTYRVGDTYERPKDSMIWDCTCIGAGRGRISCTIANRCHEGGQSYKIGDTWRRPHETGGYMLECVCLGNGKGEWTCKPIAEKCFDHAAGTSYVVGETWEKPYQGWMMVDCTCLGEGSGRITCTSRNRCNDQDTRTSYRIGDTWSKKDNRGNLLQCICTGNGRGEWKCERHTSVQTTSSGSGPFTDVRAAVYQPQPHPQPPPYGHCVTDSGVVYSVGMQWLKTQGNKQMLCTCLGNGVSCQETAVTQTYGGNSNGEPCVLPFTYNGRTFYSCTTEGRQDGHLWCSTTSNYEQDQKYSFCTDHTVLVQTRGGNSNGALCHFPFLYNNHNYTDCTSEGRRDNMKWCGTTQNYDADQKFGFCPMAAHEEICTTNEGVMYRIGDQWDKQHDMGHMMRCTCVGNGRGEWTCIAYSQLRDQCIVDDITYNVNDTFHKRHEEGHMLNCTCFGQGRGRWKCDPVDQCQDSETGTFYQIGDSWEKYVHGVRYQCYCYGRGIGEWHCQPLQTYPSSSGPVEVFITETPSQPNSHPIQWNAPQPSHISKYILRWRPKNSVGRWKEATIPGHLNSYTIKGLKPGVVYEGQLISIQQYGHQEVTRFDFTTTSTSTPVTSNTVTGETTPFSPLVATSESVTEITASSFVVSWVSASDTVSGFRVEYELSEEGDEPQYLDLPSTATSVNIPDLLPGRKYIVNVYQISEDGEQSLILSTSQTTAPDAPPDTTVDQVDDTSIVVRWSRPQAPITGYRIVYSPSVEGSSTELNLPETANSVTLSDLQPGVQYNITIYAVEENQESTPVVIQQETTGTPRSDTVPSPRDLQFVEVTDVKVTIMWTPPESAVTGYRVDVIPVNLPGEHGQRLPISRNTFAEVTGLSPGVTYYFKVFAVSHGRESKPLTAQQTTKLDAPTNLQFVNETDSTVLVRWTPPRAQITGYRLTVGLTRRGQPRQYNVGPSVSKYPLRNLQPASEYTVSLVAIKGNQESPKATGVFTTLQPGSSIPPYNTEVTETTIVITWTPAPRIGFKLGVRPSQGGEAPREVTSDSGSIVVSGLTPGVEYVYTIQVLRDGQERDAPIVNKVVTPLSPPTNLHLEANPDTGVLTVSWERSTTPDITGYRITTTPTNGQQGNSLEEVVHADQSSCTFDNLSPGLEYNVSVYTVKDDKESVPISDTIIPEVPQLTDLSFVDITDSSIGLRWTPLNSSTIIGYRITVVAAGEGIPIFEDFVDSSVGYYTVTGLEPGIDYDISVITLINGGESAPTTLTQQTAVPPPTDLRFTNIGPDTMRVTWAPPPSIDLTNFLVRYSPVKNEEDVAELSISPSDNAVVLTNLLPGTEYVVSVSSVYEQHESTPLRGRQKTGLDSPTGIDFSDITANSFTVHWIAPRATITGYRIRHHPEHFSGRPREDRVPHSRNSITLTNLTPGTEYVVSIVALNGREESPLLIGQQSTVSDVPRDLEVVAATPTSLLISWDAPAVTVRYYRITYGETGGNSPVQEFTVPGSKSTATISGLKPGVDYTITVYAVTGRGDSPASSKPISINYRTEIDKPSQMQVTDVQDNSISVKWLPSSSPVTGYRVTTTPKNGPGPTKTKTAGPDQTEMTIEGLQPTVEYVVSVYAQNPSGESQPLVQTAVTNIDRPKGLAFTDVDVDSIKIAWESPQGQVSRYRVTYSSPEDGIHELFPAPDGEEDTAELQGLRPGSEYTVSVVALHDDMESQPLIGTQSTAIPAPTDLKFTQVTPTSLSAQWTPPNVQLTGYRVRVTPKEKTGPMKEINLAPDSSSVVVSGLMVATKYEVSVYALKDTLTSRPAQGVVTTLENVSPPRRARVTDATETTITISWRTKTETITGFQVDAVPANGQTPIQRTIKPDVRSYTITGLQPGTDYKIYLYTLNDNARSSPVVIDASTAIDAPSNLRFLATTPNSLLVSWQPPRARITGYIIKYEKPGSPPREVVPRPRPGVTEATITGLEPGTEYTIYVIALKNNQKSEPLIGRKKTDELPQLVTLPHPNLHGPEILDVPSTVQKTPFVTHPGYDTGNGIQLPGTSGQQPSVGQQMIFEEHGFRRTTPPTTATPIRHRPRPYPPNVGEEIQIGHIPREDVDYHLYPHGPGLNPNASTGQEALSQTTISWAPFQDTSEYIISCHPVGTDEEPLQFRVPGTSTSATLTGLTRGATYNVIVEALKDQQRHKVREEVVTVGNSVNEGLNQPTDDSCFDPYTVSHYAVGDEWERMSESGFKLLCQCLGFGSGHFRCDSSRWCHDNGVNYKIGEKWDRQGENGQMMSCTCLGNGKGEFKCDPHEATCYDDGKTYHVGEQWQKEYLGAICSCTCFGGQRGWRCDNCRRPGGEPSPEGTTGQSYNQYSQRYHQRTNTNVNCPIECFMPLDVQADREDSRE

## 197 (HVWMQAPGGGK) [Construct 197]
[1]
  Kd: 61000 nM

## 649 (GGKVEHRVKKRPPTWRHNVRAKYT) [Construct 649]
[2]
  binding to heparin, pH dependence: binds to heparin at low pH

## 189 (RRANAALKAGELYKSILYGC) [Construct 189]
[1]
  Kd: 860 nM

## 193 (WREPSFCALS) [Construct 193]
[1]
  Kd: 100000 nM

## 650 (KKRPPTWRHNV) [Construct 650]
[2]
  binding to heparin, pH dependence: binds to heparin at low pH

## 196 (WREPSFCALS) [Construct 196]
[1]
  Kd: 100000 nM

## 647 (HKGQHR) [Construct 647]
[2]
  affinity of binding to heparin at low pH: binds to heparin at low pH (lower affinity)

## 646 (TTEPSEEHNHHKHHDK) [Construct 646]
[2]
  affinity of binding to heparin at low pH: binds to heparin at low pH (lower affinity)

## 195 (CPKESCNLFVLKD) [Construct 195]
[1]
  Kd: 681 nM

## 642 (KHAHLKKQVSDHIAVY) [Construct 642]
[2]
  affinity of binding to heparin at low pH: binds to heparin at low pH (high affinity)

## 645 (TTEPSEEHNHHK) [Construct 645]
[2]
  affinity of binding to heparin at low pH: binds to heparin at low pH (lower affinity)

## 192 (LRELHLNNN) [Construct 192]
[1]
  Kd: 170 nM

## 191 (MIVIELGTNPLKSSGIENGAFQGMKK) [Construct 191]
[1]
  Kd: 394 nM

## 643 (TTEPSEEHNHHK) [Construct 643]
[2]
  affinity of binding to heparin at low pH: binds to heparin at low pH (low affinity)

## 648 (KVEHRVKKRPPTWRHNVRAKYT) [Construct 648]
[2]
  binding to heparin, pH dependence: binds to heparin at low pH

## 644 (KHAHL) [Construct 644]
[2]
  affinity of binding to heparin at low pH: binds to heparin at low pH (lower affinity)

## 194 (TKKTLRT) [Construct 194]
[1]
  Kd: ≤ 100000 nM

B1: Construct Y: SEQ ID NO 809: m IL2(C140S)-VRIQRKKEKMKET-MMPcs1-2x(G4S)-mIL2Ra (1-215)-mu IgG1 Fc (protein)
chain: APTSSSTSSSTAEAQQQQQQQQQQQQHLEQLLMDLQELLSRMENYRNLKLPRMLTFKFYLPKQATELKDLQCLEDELGPLRHVLDLTQSKSFQLEDAENFISNIRVTVVKLKGSDNTFECQFDDESATVVDFLRRWIAFSQSIISTSPQVRIQRKKEKMKETGPLGVRGGGGGSGGGGSELCLYDPPEVPNATFKALSYKNGTILNCECKRGFRRLKELVYMRCLGNSWSSNCQCTSNSHDKSRKQVTAQLEHQKEQQTTTDMQKPTQSMHQENLTGHCREPPPWKHEDSKRIYHFVEGQSVHYECIPGYKALQRGPAISICKMKCGKTGWTQPQLTCVDEREHHRFLASEESQGSRNSSPESETSCPITTTDFPQPTETTAMTETFVLTMEYKIEGRMDGCKPCICTVPEVSSVFIFPPKPKDVLTITLTPKVTCVVVDISKDDPEVQFSWFVDDVEVHTAQTQPREEQFNSTFRSVSELPIMHQDWLNGKEFKCRVNSAAFPAPIEKTISKTKGRPKAPQVYTIPPPKEQMAKDKVSLTCMITDFFPEDITVEWQWNGQPAENYKNTQPIMDTDGSYFVYSKLNVQKSNWEAGNTFTCSVLHEGLHNHHTEKSLSHSPGK
[3]; [8]
  EC50: 0.0109 nM
[3]; uncleaved, read-out: −MMP EC50
  EC50: 1.23 nM
[4]
  heparin binding (qualitative): bind heparin in dose-dependent manner and with higher affinity than Construct B
[5]
  drug levels in circulation relative to Construct B: more than 10 fold
[6]; 20 mg/kg IV Q3D, 5 doses
  TGI (%) D 13: 77% and 76.59%

B2: Construct EE: SEQ ID NO 815: m IL2-SGG-GGWSHW-MMPcs1-2x(G4S)-mIL2Ra(1-215)-mu IgG1 Fc (protein)
chain: APTSSSTSSSTAEAQQQQQQQQQQQQHLEQLLMDLQELLSRMENYRNLKLPRMLTFKFYLPKQATELKDLQCLEDELGPLRHVLDLTQSKSFQLEDAENFISNIRVTVVKLKGSDNTFECQFDDESATVVDFLRRWIAFCQSIISTSPQSGGGGWSHWGPLGVRGGGGGSGGGGSELCLYDPPEVPNATFKALSYKNGTILNCECKRGFRRLKELVYMRCLGNSWSSNCQCTSNSHDKSRKQVTAQLEHQKEQQTTTDMQKPTQSMHQENLTGHCREPPPWKHEDSKRIYHFVEGQSVHYECIPGYKALQRGPAISICKMKCGKTGWTQPQLTCVDEREHHRFLASEESQGSRNSSPESETSCPITTTDFPQPTETTAMTETFVLTMEYKGCKPCICTVPEVSSVFIFPPKPKDVLTITLTPKVTCVVVDISKDDPEVQFSWFVDDVEVHTAQTQPREEQFNSTFRSVSELPIMHQDWLNGKEFKCRVNSAAFPAPIEKTISKTKGRPKAPQVYTIPPPKEQMAKDKVSLTCMITDFFPEDITVEWQWNGQPAENYKNTQPIMDTDGSYFVYSKLNVQKSNWEAGNTFTCSVLHEGLHNHHTEKSLSHSPGK
[3]; [8]
  EC50: 0.0066 nM
[3]; uncleaved, read-out: −MMP EC50
  EC50: 1.18 nM
[7]; pH 6
  fibronectin binding at acidic pH: preferentially binds fibronectin at acidic pH
[7]; pH 7.5 (neutral)
  fibronectin binding at pH 7.5: no binding is observed
[6]; 10 mg/kg IV Q3D, 5 doses
  TGI (%) D 15: 39.32%
[6]; 10 mg/kg, 7 days following the fifth dose
  TGI (%) D 20: 37.61%

B3: Construct AA: SEQ ID NO 811: m IL2-SGG-FHRRIKA-MMPcs1-2x(G4S)-mIL2Ra(1-215)-mu IgG1 Fc (protein)
chain: APTSSSTSSSTAEAQQQQQQQQQQQQHLEQLLMDLQELLSRMENYRNLKLPRMLTFKFYLPKQATELKDLQCLEDELGPLRHVLDLTQSKSFQLEDAENFISNIRVTVVKLKGSDNTFECQFDDESATVVDFLRRWIAFCQSIISTSPQSGGFHRRIKAGPLGVRGGGGGSGGGGSELCLYDPPEVPNATFKALSYKNGTILNCECKRGFRRLKELVYMRCLGNSWSSNCQCTSNSHDKSRKQVTAQLEHQKEQQTTTDMQKPTQSMHQENLTGHCREPPPWKHEDSKRIYHFVEGQSVHYECIPGYKALQRGPAISICKMKCGKTGWTQPQLTCVDEREHHRFLASEESQGSRNSSPESETSCPITTTDFPQPTETTAMTETFVLTMEYKGCKPCICTVPEVSSVFIFPPKPKDVLTITLTPKVTCVVVDISKDDPEVQFSWFVDDVEVHTAQTQPREEQFNSTFRSVSELPIMHQDWLNGKEFKCRVNSAAFPAPIEKTISKTKGRPKAPQVYTIPPPKEQMAKDKVSLTCMITDFFPEDITVEWQWNGQPAENYKNTQPIMDTDGSYFVYSKLNVQKSNWEAGNTFTCSVLHEGLHNHHTEKSLSHSPGK
[3]; [8]
  EC50: 0.0109 nM
[3]; uncleaved, read-out: −MMP EC50
  EC50: 0.442 nM
